Laboratory results reported in patent US20110263454A1, “Methods of Identifying Functional Characteristics of Promoters, Transcription Modifying Proteins and Transcription Modulating Agents” (Salk Institute for Biological Studies, priority 2008, published 2011).

Experiments:
mUCP2 promoter = assay: NHR-promoter luciferase screen, mUCP2 promoter; assay type: cell-based, mouse; settings: for Luc. act., normalized to lacZ / Normalized Luc. act., normalized to control: mUCP2 promoter reporter, co-transfected HR, with or without its ligand; for Normalized Luc. act., normalized to control: relative to control; for luciferase activity normalized to lacZ activity and to a control, mUCP2: mUCP2 promoter-luciferase, CV-1 cells, NHR +/- ligand, control = 1.00
How it was run: (§1)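 CV-1 cells were co-transfected with 50 ng NHR (homodimer or NHR/RXR heterodimer), 100 ng promoter-luciferase construct and 50 ng LacZ. Luciferase was normalized to LacZ and to a no-NHR/no-ligand control.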

hIFNg promoter = assay: NHR-promoter luciferase screen, hIFNg promoter; assay type: cell-based, human; settings: for Luc. act., normalized to lacZ / Normalized Luc. act., normalized to control: IFNg promoter, HR component without or with ligand; for hIFNg promoter reporter activity: transcription factor +/- ligand, control = 1.00
How it was run: as §1

mAgrp promoter = assay: NHR-promoter luciferase screen, mAgrp promoter; assay type: cell-based, mouse; settings: for Results of assays of transcription factor (+/- ligand) with mAgrp: Table 6d, luciferase activity relative to control (control = 1.00); for Luc. act., normalized to lacZ / Normalized Luc. act., normalized to control: mAgrp promoter, HR component with or without ligand; for Normalized Luc. act., normalized to control: relative to control; for luciferase/LacZ, mAgrp (selected results): mAgrp promoter-luciferase, NHR +/- ligand, control = 1.0
How it was run: as §1

Molecule	Luc. act., normalized to lacZ (mUCP2 promoter)	Normalized Luc. act., normalized to control (mUCP2 promoter)	luciferase activity normalized to lacZ activity and to a control, mUCP2 (mUCP2 promoter)	Luc. act., normalized to lacZ (hIFNg promoter)	Normalized Luc. act., normalized to control (hIFNg promoter)	hIFNg promoter reporter activity (hIFNg promoter)	Results of assays of transcription factor (+/- ligand) with mAgrp (mAgrp promoter)	Luc. act., normalized to lacZ (mAgrp promoter)	Normalized Luc. act., normalized to control (mAgrp promoter)	luciferase/LacZ, mAgrp (selected results) (mAgrp promoter)
Erb: Estrogen Receptor β (NR3A2, ERb), cDNA driver (protein, UniProt Q92731 1-530, looked up) Estrogen receptor beta: MDIKNSPSSLNSPSSYNCSQSILPLEHGSIYIPSSYVDSHHEYPAMTFYSPAVMNYSIPSNVTNLEGGPGRQTTSPNVLWPTPGHLSPLVVHRQLSHLYAEPQKSPWCEARSLEHTLPVNRETLKRKVSGNRCASPVTGPGSKRDAHFCAVCSDYASGYHYGVWSCEGCKAFFKRSIQGHNDYICPATNQCTIDKNRRKSCQACRLRKCYEVGMVKCGSRRERCGYRLVRRQRSADEQLHCAGKAKRSGGHAPRVRELLLDALSPEQLVLTLLEAEPPHVLISRPSAPFTEASMMMSLTKLADKELVHMISWAKKIPGFVELSLFDQVRLLESCWMEVLMMGLMWRSIDHPGKLIFAPDLVLDRDEGKCVEGILEIFDMLLATTSRFRELKLQHKEYLCVKAMILLNSSMYPLVTATQDADSSRKLAHLLNAVTDALVWVIAKSGISSQQQSMRLANLLMLLSHVRHASNKGMEHLLNMKCKNVVPVYDLLLEMLNAHVLRGCKSSITGSECSPAEDSKSKEGSQNPQSQ	114.4	1.0	1.04	22.0	1.4	1.39	0.98	39.0	1.0	
TR2: Testicular Orphan Nuclear Receptor 2 (NR2C1), cDNA driver (protein, UniProt P13056 1-603, looked up) Nuclear receptor subfamily 2 …: MATIEEIAHQIIEQQMGEIVTEQQTGQKIQIVTALDHNTQGKQFILTNHDGSTPSKVILARQDSTPGKVFLTTPDAAGVNQLFFTTPDLSAQHLQLLTDNSPDQGPNKVFDLCVVCGDKASGRHYGAVTCEGCKGFFKRSIRKNLVYSCRGSKDCIINKHHRNRCQYCRLQRCIAFGMKQDSVQCERKPIEVSREKSSNCAASTEKIYIRKDLRSPLTATPTFVTDSESTRSTGLLDSGMFMNIHPSGVKTESAVLMTSDKAESCQGDLSTLANVVTSLANLGKTKDLSQNSNEMSMIESLSNDDTSLCEFQEMQTNGDVSRAFDTLAKALNPGESTACQSSVAGMEGSVHLITGDSSINYTEKEGPLLSDSHVAFRLTMPSPMPEYLNVHYIGESASRLLFLSMHWALSIPSFQALGQENSISLVKAYWNELFTLGLAQCWQVMNVATILATFVNCLHNSLQQDKMSTERRKLLMEHIFKLQEFCNSMVKLCIDGYEYAYLKAIVLFSPDHPSLENMEQIEKFQEKAYVEFQDYITKTYPDDTYRLSRLLLRLPALRLMNATITEELFFKGLIGNIRIDSVIPHILKMEPADYNSQIIGHSI	208.9	1.9	1.90	13.6	0.9	0.85	0.98	39.0	1.0	
ERR2: Estrogen Related Receptor β (NR3B2, ERRb), cDNA driver (protein, UniProt O95718 1-433, looked up) Steroid hormone receptor ERR2: MSSDDRHLGSSCGSFIKTEPSSPSSGIDALSHHSPSGSSDASGGFGLALGTHANGLDSPPMFAGAGLGGTPCRKSYEDCASGIMEDSAIKCEYMLNAIPKRLCLVCGDIASGYHYGVASCEACKAFFKRTIQGNIEYSCPATNECEITKRRRKSCQACRFMKCLKVGMLKEGVRLDRVRGGRQKYKRRLDSESSPYLSLQISPPAKKPLTKIVSYLLVAEPDKLYAMPPPGMPEGDIKALTTLCDLADRELVVIIGWAKHIPGFSSLSLGDQMSLLQSAWMEILILGIVYRSLPYDDKLVYAEDYIMDEEHSRLAGLLELYRAILQLVRRYKKLKVEKEEFVTLKALALANSDSMYIEDLEAVQKLQDLLHEALQDYELSQRHEEPWRTGKLLLTLPLLRQTAAKAVQHFYSVKLQGKVPMHKLFLEMLEAKV	185.1	1.7	1.68	58.9	3.7	3.70	1.64	65.0	1.6	1.6
HNF4g: Hepatocyte Nuclear Factor γ (NR2A2), cDNA driver (protein, UniProt Q14541 1-408, looked up) Hepatocyte nuclear factor …: MNTTDNGVNCLCAICGDRATGKHYGASSCDGCKGFFRRSIRKSHVYSCRFSRQCVVDKDKRNQCRYCRLRKCFRAGMKKEAVQNERDRISTRRSTFDGSNIPSINTLAQAEVRSRQISVSSPGSSTDINVKKIASIGDVCESMKQQLLVLVEWAKYIPAFCELPLDDQVALLRAHAGEHLLLGATKRSMMYKDILLLGNNYVIHRNSCEVEISRVANRVLDELVRPFQEIQIDDNEYACLKAIVFFDPDAKGLSDPVKIKNMRFQVQIGLEDYINDRQYDSRGRFGELLLLLPTLQSITWQMIEQIQFVKLFGMVKIDNLLQEMLLGGASNDGSHLHHPMHPHLSQDPLTGQTILLGPMSTLVHADQISTPETPLPSPPQGSGQEQYKIAANQASVISHQHLSKQKQL	114.8	1.0	1.04	13.3	0.8	0.83	0.77	30.4	0.8	
TR4: Testicular Orphan Nuclear Receptor 4 (NR2C2), cDNA driver (protein, UniProt P49116 1-596, looked up) Nuclear receptor subfamily 2 …: MTSPSPRIQIISTDSAVASPQRIQIVTDQQTGQKIQIVTAVDASGSPKQQFILTSPDGAGTGKVILASPETSSAKQLIFTTSDNLVPGRIQIVTDSASVERLLGKTDVQRPQVVEYCVVCGDKASGRHYGAVSCEGCKGFFKRSVRKNLTYSCRSNQDCIINKHHRNRCQFCRLKKCLEMGMKMESVQSERKPFDVQREKPSNCAASTEKIYIRKDLRSPLIATPTFVADKDGARQTGLLDPGMLVNIQQPLIREDGTVLLATDSKAETSQGALGTLANVVTSLANLSESLNNGDTSEIQPEDQSASEITRAFDTLAKALNTTDSSSSPSLADGIDTSGGGSIHVISRDQSTPIIEVEGPLLSDTHVTFKLTMPSPMPEYLNVHYICESASRLLFLSMHWARSIPAFQALGQDCNTSLVRACWNELFTLGLAQCAQVMSLSTILAAIVNHLQNSIQEDKLSGDRIKQVMEHIWKLQEFCNSMAKLDIDGYEYAYLKAIVLFSPDHPGLTSTSQIEKFQEKAQMELQDYVQKTYSEDTYRLARILVRLPALRLMSSNITEELFFTGLIGNVSIDSIIPYILKMETAEYNGQITGASL	199.0	1.8	1.81	42.5	2.7	2.67	2.06	81.8	2.1	2.1
